Results published in patent US20080076708A1.

Molecular target: Recombinant human Interleukin-18 (r-hIL-18) (human) (UniProt Q14116)
Assay: cell-based or functional assay

Recombinant human Interleukin-18 (r-hIL-18) (human), sequence (Q14116 37-193 limits assumed): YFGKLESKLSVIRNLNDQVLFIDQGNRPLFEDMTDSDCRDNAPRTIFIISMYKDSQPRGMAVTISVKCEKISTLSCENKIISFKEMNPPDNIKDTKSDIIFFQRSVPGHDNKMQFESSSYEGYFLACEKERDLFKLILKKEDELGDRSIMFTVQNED

Substance | Biological activity U/mL (KG-1 cells in vitro bioassay; bulk ILNCT19) | Biological activity U/mL (KG-1 cells in vitro bioassay; bulk ILNCT20) | Biological activity U/mL (KG-1 cells in vitro bioassay; bulk ILNCT21) | Biological activity U/mL (KG-1 cells in vitro bioassay; bulk ILNCT22) | Specific activity U/mg (KG-1 cells in vitro bioassay; bulk ILNCT19) | Specific activity U/mg (KG-1 cells in vitro bioassay; bulk ILNCT20) | Specific activity U/mg (KG-1 cells in vitro bioassay; bulk ILNCT21) | Specific activity U/mg (KG-1 cells in vitro bioassay; bulk ILNCT22) | Biological activity U/mL (KG-1 cells in vitro bioassay; bulk ILNCT23) | Biological activity U/mL (KG-1 cells in vitro bioassay; bulk ILNCT24) | Specific activity U/mg (KG-1 cells in vitro bioassay; bulk ILNCT23) | Specific activity U/mg (KG-1 cells in vitro bioassay; bulk ILNCT24)
truncated form of r-hIL-18BP (serum-free produced drug substance batches ILNCT19-22) (from UniProt O95998 46-194) | 949000 U/mL | 1.23e+06 U/mL | 1.28e+06 U/mL | 1.35e+06 U/mL | 15400 U/mg | 21400 U/mg | 20400 U/mg | 22500 U/mg |  |  |  | 
r-hIL-18BP bulks ILNCT23 and ILNCT24 (from UniProt O95998 31-194) |  |  |  |  |  |  |  |  | 1.2e+06 U/mL | 1.01e+06 U/mL | 19800 U/mg | 17900 U/mg
